Measured values: patent publication US20120115202A1

Molecular target: PsaJF mutant PSI from Synechocystis sp. PCC 6803 (Synechocystis sp. PCC 6803) (UniProt Q55329)
Assay: cell-based or functional assay

## horse heart cytochrome c (from UniProt P00004 2-105)
  rate of electron donation (light-induced cytochrome c oxidation, absorbance difference 550-540 nm) (fold faster than to the wild-type PSI): > 5
